Assay results reported in US20190248900A1 (Y BIOLOGICS, published 2019).
Numbering of substitutions follows the chain as printed.

T1: ITGA6-Fc
T1 construct: Fc fusion
T1 sequence (P23229 whole entry, species assumed, looked up): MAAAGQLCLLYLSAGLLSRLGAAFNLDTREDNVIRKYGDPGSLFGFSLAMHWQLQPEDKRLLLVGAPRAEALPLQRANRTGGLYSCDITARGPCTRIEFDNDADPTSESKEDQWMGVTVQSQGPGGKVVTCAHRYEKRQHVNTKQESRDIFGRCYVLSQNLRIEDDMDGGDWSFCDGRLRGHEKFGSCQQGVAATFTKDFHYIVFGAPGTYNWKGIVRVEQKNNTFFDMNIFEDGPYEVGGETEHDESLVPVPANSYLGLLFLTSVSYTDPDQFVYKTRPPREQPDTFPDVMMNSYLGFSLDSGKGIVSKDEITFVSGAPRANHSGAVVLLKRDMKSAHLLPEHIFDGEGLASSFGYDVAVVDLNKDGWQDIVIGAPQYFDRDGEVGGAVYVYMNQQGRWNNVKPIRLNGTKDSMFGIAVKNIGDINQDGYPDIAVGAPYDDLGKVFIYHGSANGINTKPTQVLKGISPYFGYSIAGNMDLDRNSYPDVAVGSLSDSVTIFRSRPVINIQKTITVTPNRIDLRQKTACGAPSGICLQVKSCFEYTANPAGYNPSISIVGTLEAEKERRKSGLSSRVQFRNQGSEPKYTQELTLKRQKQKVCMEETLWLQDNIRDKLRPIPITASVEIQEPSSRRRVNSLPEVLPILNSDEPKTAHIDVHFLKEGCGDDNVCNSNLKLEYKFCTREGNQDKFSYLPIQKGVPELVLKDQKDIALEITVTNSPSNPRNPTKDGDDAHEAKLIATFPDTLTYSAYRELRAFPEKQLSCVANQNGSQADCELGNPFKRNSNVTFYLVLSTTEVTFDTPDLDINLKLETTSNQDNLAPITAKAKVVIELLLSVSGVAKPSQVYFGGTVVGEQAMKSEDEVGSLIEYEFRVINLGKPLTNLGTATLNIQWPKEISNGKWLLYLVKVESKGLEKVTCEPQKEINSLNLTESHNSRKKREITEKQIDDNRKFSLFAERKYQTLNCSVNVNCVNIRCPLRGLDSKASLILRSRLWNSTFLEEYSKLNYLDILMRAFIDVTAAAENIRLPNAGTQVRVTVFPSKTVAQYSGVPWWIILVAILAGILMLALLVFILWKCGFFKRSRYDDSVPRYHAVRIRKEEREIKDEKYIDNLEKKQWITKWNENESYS

B1: PD1-41C9 (antibody, V domains shown)
VH: QMQLVESGGGVVQPGRSLRLSCAASGFTFSSYAMHWVRQAPGKGLEWVAVISYDGSNKYYADSVKGRFTISRDNSKNTLYLQMNRLRSEDTAVYYCTTTTFDSWGQGTLITVSS
VL: DIVMTQTPLSLPVTPGEAASISCRSSQSLLDSEDGNTYLDWYLQKPGQSPQLLIYTLSHRASGVPDRFSGSGSGTDFTLKISRVAAEDVGLYYCLQRMGFPYTFGQGTKLDIK
notes: scFv-phage in the screening ELISA; whole IgG in the other assays
B2: PD1-49A2 (antibody, V domains shown)
VH: B1 VH with M2V, S75P, R85S, S88A, Q106R, I110V
VL: B1 VL with T7S, A18P, L30F, E33D, A85E, L91I, L110V, D111E
notes: scFv-phage in the screening ELISA; whole IgG in the other assays; also called Parent 49A2
B3: PD1-45D6 (antibody, V domains shown)
VH: QVQLVESGGGVVQPGRSLRLSCAASGFTFSSYAMHWVRQVPGKGLEWVAVISYDGNDKYYADSVKGRFTISRDNSKNTLYLQMNSLRAEDTAVYYCVPTTFEYWGQGSQVTVSS
VL: DIVMTQTPLSLPVTPGEAASISCRSSQSLLDSDDGKTYLDWYLQKPGQSPQLLIYTLSYRASGVPDRFSGSGSGTEFNLRISRVEAEDVGIYYCMQRVEFPFTFGQGTKLDIK
notes: as for B1
B4: PD1-52E8 (antibody, V domains shown)
VH: QVQLVQSGGNLVQPGRSLRLSCAASGFTFDDYAMHWVRQAPGKGLEWVSGISWNSGTPGYADSVQGRFTISRDNAKNSLYLQMNSLRAEDTAVYYCARGHNYLDSSYYDYWGQGTLVTVSS
VL: SYELTQPLSLSVAPGQTARITCSGDALSKEYSYWYQQKPGQAPVLVMYKDSERPSGIPERFSGSSSGTTVTLTISGVQAEDEADYYCQSVDSSDTSVVFGGGTKLTVL
notes: as for B1

target: T1, ITGA6-Fc; assay: ELISA, 1 ug/ml

| Binder | OD490 |
| --- | --- |
| B1 | 0.5 |
| B2 | 0.2 |
| B3 | 0.5 |
| B4 | 0.1 |

target: T2, M9; assay: ELISA, 1 ug/ml
T2 construct: also called PD1 mutant M9

| Binder | OD490 |
| --- | --- |
| B1 | 3.3 |
| B2 | 3.7 |
| B3 | 3.8 |
| B4 | 2.4 |

target: T3, M13; assay: ELISA, 1 ug/ml
T3 construct: also called PD1 mutant M13

| Binder | OD490 |
| --- | --- |
| B1 | 3.6 |
| B2 | 3.9 |
| B3 | 4 |
| B4 | 3.9 |

target: T4, M7-1; assay: ELISA, 1 ug/ml
T4 construct: also called PD1 mutant M7-1

| Binder | OD490 |
| --- | --- |
| B1 | 1.2 |
| B2 | 0.5 |
| B3 | 1.3 |
| B4 | 1.1 |

target: T5, PD1-his (Catalog Number 10377-H08H, Sino Biological Inc.) (UniProt Q15116 25-167); assay: ELISA, 1 ug/ml
T5 construct: bought protein; not shown: His tag
T5 sequence (Q15116 25-167 limits assumed): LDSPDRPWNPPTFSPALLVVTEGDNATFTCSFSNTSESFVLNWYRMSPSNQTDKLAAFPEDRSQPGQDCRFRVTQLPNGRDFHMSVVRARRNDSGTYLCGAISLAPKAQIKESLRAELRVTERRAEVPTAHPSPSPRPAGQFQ

| Binder | OD490 |
| --- | --- |
| B1 | 3.2 |
| B2 | 3.6 |
| B3 | 3.8 |
| B4 | 0.4 |

target: T6, M1; assay: ELISA, 1 ug/ml
T6 construct: also called PD1 mutant M1

| Binder | OD490 |
| --- | --- |
| B1 | 3.2 |
| B2 | 3 |
| B3 | 4 |
| B4 | 1.4 |

target: T7, M5-1; assay: ELISA, 1 ug/ml
T7 construct: also called PD1 mutant M5-1

| Binder | OD490 |
| --- | --- |
| B1 | 2.8 |
| B2 | 0.7 |
| B3 | 3.8 |
| B4 | 0.3 |

target: T8, M4; assay: ELISA, 1 ug/ml
T8 construct: also called PD1 mutant M4

| Binder | OD490 |
| --- | --- |
| B1 | 3.2 |
| B2 | 3.9 |
| B3 | 3.9 |
| B4 | 3.7 |

target: T9, M8; assay: ELISA, 1 ug/ml
T9 construct: also called PD1 mutant M8

| Binder | OD490 |
| --- | --- |
| B1 | 2.5 |
| B2 | 3 |
| B3 | 3.8 |
| B4 | 0.6 |

target: T10, M2-2; assay: ELISA, 1 ug/ml
T10 construct: also called PD1 mutant M2-2

| Binder | OD490 |
| --- | --- |
| B1 | 3.2 |
| B2 | 3.8 |
| B3 | 3.8 |
| B4 | 3.4 |

target: T11, M10; assay: ELISA, 1 ug/ml
T11 construct: also called PD1 mutant M10

| Binder | OD490 |
| --- | --- |
| B1 | 3.4 |
| B2 | 2.6 |
| B3 | 3.9 |
| B4 | 1 |

target: T12, M1-2; assay: ELISA, 1 ug/ml
T12 construct: also called PD1 mutant M1-2

| Binder | OD490 |
| --- | --- |
| B1 | 3.2 |
| B2 | 3.8 |
| B3 | 3.9 |
| B4 | 3.6 |

target: T13, M3; assay: ELISA, 1 ug/ml
T13 construct: also called PD1 mutant M3

| Binder | OD490 |
| --- | --- |
| B1 | 2.3 |
| B2 | 3.4 |
| B3 | 3.8 |
| B4 | 1.5 |

target: T14, M1-1; assay: ELISA, 1 ug/ml
T14 construct: also called PD1 mutant M1-1

| Binder | OD490 |
| --- | --- |
| B1 | 3.1 |
| B2 | 3.4 |
| B3 | 3.8 |
| B4 | 1.5 |

target: T15, M2-1; assay: ELISA, 1 ug/ml
T15 construct: also called PD1 mutant M2-1

| Binder | OD490 |
| --- | --- |
| B1 | 3.4 |
| B2 | 3.7 |
| B3 | 3.9 |
| B4 | 2.9 |

target: T16, M12; assay: ELISA, 1 ug/ml
T16 construct: also called PD1 mutant M12

| Binder | OD490 |
| --- | --- |
| B1 | 3.1 |
| B2 | 3.9 |
| B3 | 3.9 |
| B4 | 3.2 |

target: T17, M14; assay: ELISA, 1 ug/ml
T17 construct: also called PD1 mutant M14

| Binder | OD490 |
| --- | --- |
| B1 | 3.5 |
| B2 | 3.9 |
| B3 | 3.9 |
| B4 | 2.6 |

target: T18, M7-2; assay: ELISA, 1 ug/ml
T18 construct: also called PD1 mutant M7-2

| Binder | OD490 |
| --- | --- |
| B1 | 3 |
| B2 | 2.2 |
| B3 | 4 |
| B4 | 3.9 |

target: T19, M5-2; assay: ELISA, 1 ug/ml
T19 construct: also called PD1 mutant M5-2

| Binder | OD490 |
| --- | --- |
| B1 | 3.6 |
| B2 | 3.8 |
| B3 | 3.9 |
| B4 | 3.5 |

target: T20, M7; assay: ELISA, 1 ug/ml
T20 construct: also called PD1 mutant M7

| Binder | OD490 |
| --- | --- |
| B1 | 0.8 |
| B2 | 0.4 |
| B3 | 0.5 |
| B4 | 1 |

target: T21, M5; assay: ELISA, 1 ug/ml
T21 construct: also called PD1 mutant M5

| Binder | OD490 |
| --- | --- |
| B1 | 2.3 |
| B2 | 1.2 |
| B3 | 3.6 |
| B4 | 0.5 |

target: T22, M11; assay: ELISA, 1 ug/ml
T22 construct: also called PD1 mutant M11

| Binder | OD490 |
| --- | --- |
| B1 | 0.9 |
| B2 | 0.4 |
| B3 | 0.7 |
| B4 | 0.2 |

target: T23, M6; assay: ELISA, 1 ug/ml
T23 construct: also called PD1 mutant M6

| Binder | OD490 |
| --- | --- |
| B1 | 3.6 |
| B2 | 3.9 |
| B3 | 3.9 |
| B4 | 3.4 |

target: human PD-1 (NM_005018.2) over-expressed on cells (human, UniProt Q15116 25-288); assay: cell-based or functional assay
Sequence (Q15116 25-288): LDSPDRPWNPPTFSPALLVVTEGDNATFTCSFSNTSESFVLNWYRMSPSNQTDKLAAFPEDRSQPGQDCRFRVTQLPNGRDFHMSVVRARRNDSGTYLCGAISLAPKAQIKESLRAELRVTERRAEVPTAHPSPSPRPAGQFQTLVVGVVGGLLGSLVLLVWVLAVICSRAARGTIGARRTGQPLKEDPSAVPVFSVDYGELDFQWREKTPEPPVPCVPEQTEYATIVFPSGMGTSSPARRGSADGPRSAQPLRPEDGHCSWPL

| Binder | EC50 [nM], PD1/PD-L1 blockade bioassay |
| --- | --- |
| B1 | 3.91 nM |
| B2 | 3.78 nM |
| B3 | 2 nM |
| B4 | 8.43 nM |
